Laboratory results taken from patent US20190016764A1 (KYUNGPOOK NATIONAL UNIVERSITY INDUSTRY ACADEMIC COOPERATION …, published 2019).
No end group written: not given here.

T1: TFMG (TRAP-ferritin monomer fragment-linker-PC-Gla fusion polypeptide)
T1 chain: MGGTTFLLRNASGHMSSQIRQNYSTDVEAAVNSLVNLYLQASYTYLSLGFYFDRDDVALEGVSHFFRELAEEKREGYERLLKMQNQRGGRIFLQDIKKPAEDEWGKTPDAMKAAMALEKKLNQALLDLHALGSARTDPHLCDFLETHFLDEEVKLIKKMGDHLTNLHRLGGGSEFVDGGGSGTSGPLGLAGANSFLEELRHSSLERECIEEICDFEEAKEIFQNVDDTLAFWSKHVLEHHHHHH

T2: EPCR in mouse vena cava (mouse, UniProt Q64695 18-242)
T2 construct: whole, on cells; Endogenous receptor in tissue sections of C57BL/6 mice; also called EPCR (mouse, in vivo)
T2 sequence (looked up): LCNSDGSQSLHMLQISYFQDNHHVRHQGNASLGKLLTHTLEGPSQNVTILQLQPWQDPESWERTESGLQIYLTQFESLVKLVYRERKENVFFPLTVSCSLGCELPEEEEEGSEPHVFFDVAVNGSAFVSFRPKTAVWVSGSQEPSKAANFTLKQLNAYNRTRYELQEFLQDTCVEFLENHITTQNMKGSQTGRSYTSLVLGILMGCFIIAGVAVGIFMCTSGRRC

B1: MMP-2 (matrix metalloproteinase-2), p-aminophenylmercuric acetate-activated (protein)
chain: YNFFPRKPKWDKNQITYRIIGYTPDLDPETVDDAFARAFQVWSDVTPLRFSRIHDGEADIMINFGRWEHGDGYPFDGKDGLLAHAFAPGTGVGGDSHFDDDELWTLGEGQVVRVKYGNADGEYCKFPFLFNGKEYNSCTDTGRSDGFLWCSTTYNFEKDGKYGFCPHEALFTMGGNAEGQPCKFPFRFQGTSYDSCTTEGRTDGYRWCGTTEDYDRDKKYGFCPETAMSTVGGNSEGAPCVFPFTFLGNKYESCTSAGRSDGKMWCATTANYDDDRKWGFCPDQGYSLFLVAAHEFGHAMGLEHSQDPGALMAPIYTYTKNFRLSQDDIKGIQELYGASPDIDLGTGPTPTLGPVTPEICKQDIVFDGIAQIRGEIFFFKDRFIWRTVTPRDKPMGPLLVATFWPELPEKIDAVYEAPQEEKAVFFAGNEYWIYSASTLERGYPKPLTSLGLPPDVQRVDAAFNWSKNKKTYIFAGDKFWRYNEVKKKMDPGFPKLIADAWNAIPDNLDAVVDLQGGGHSYFFKGAYYLKLENQSLKSVKFGSIKSDWLGC
B2: TFMG (TRAP-ferritin monomer fragment-linker-PC-Gla fusion polypeptide) (other)
chain: T1 chain
notes: also called TMFG; TFME
B3: PC-Gla peptide (Protein C Gla domain polypeptide) (peptide)
peptide: ANSFLEELRHSSLERECIEEICDFEEAKEIFQNVDDTLAFWSKHV
modifications: ends and bridges not checked; also: labelled with a fluorescent dye for cell and in vivo assays
notes: No gamma-carboxylation of Glu residues is stated; It was labelled with a fluorescent dye for the cell and in vivo assays; also called PC-Gla domain; PC-Gla peptides
B4: TFG (TRAP-ferritin monomer fragment-PC-Gla fusion polypeptide) (other)
chain: MGGTTFLLRNASGHMSSQIRQNYSTDVEAAVNSLVNLYLQASYTYLSLGFYFDRDDVALEGVSHFFRELAEEKREGYERLLKMQNQRGGRIFLQDIKKPAEDEWGKTPDAMKAAMALEKKLNQALLDLHALGSARTDPHLCDFLETHFLDEEVKLIKKMGDHLTNLHRLGGGSEFVDGGGSGTSANSFLEELRHSSLERECIEEICDFEEAKEIFQNVDDTLAFWSKHVLEHHHHHH
notes: also called TRAP-ferritin-PC-Gla; TFG nanocage
B5: soluble EPCR (endothelial protein C receptor) (receptor, UniProt Q9UNN8 18-210, looked up)
chain: SQDASDGLQRLHMLQISYFRDPYHVWYQGNASLGGHLTHVLEGPDTNTTIIQLQPLQEPESWARTQSGLQSYLLQFHGLVRLVHQERTLAFPLTIRCFLGCELPPEGSRAHVFFEVAVNGSSFVSFRPERALWQADTQVTSGVVTFTLQQLNAYNRTRYELREFLEDTCVQYVQKHISAENTKGSQTSRSYTS
notes: also called sEPCR

Assays:
[1] = molecular target: T1, TFMG (TRAP-ferritin monomer …)
[2] = molecular target: B5; assay: solid-phase ELISA, sEPCR coated on the plate, detection with anti-protein C polyclonal antibody; Kd(app)
Method: (§1) To evaluate the interaction of the wild-type PC, PC-Gla peptides, TFG, and TFMG with EPCR, 96-well flat microtiter plates were coated with soluble EPCR in 20 mM carbonate-bicarbonate buffer (pH 9.6) containing 0.02% sodium azaide, overnight at 4° C. After the plates were washed three times in TBS buffer (0.1 M NaCl, 0.02 M Tris-HCl, pH 7.4) containing 0.05% Tween 20, the plates were incubated with wild-type PC, PC-Gla peptides, TFG, and TFMG ([…]) diluted in the buffer for 1 h. After the plates were rinsed again, they were incubated with a goat anti-protein C polyclonal antibody (1:1000) for 1 h. Then, the plates were washed and incubated with rabbit anti-goat IgG (KPL, MD, 1:1000) for 1 h. After washing, the plates were incubated with 2,2′-azino-di(3-ethylbenzthiazoline-6-sulfonate) (ABTS; KPL, Gaithersburg, Md.). Colorimetric analysis was performed by measuring absorbance values at 405 nm.
(§2) First, a solid-phase ELISA was used to measure the binding affinity of TFG or TFMG toward the PC-Gla receptor, EPCR. In this assay, the efficiency of their binding to soluble EPCR (sEPCR) was compared. […] TFG and TFMG, respectively.

EPCR in mouse vena cava = molecular target: T2, EPCR in mouse vena cava; assay: immunohistochemistry of mouse vena cava after i.v. injection of the fluorescence-labelled molecule; comparison with TFG and TFMG
Method: Twenty-four hours prior to CLP surgery, fluorescence labeled-PC-Gla, TFG, and TFMG (200 nM/mouse) was intravenously injected into the mice, respectively. After 24 h, mouse vena cava was enucleated and fixed in visikol for 24 h. Subsequently, vena cava was embedded in optimum cutting temperature (OCT) compound (Tissue Tek) at −80° C. Consecutive sections were incubated with anti-EPCR antibody (Santa Cruz, Calif.), anti-rabbit Alexa 488 (green), anti-CD31 antibody, and anti-rabbit Alexa 350 (blue), and observed by confocal microscopy at 63× magnification (TCS-SP5, Leica microsystem, Germany).

wild type Protein C (PC) = molecular target: T3, wild type Protein C (PC) (UniProt P04070 43-461); assay: solid-phase ELISA, sEPCR coated on the plate, detection with anti-protein C polyclonal antibody; Kd(app)
T3 construct: also called wild-type PC
Method: as §1, §2

Binder: B1
cleavage of the linker and release of PC-Gla (HPLC, MALDI-ToF) [1]: TFMG was cleaved by MMP-2 to release PC-Gla in agreement with the calculated mass (5,518.6 Da by MALDI-ToF)

Binder: B2
Kd [2]: 30.7 nM

Binder: B3
binding result (EPCR in mouse vena cava): binds

Binder: B4
Kd [2]: 31.5 nM

Binder: B5
Kd (wild type Protein C (PC)): ~31.3 nM
